Test results: patent US20060172374A1 (Novartis, published 2006)

Tests used:
[1] = molecular target: T1, HA-NDR N-terminal point mutant, arginine 41 to alanine (human, UniProt Q15208 1-465); assay: co-immunoprecipitation of myc-hMOB1 with HA-NDR point mutants, OA-treated COS1 cells
T1 construct: also called arginine 41 mutant

[2] = molecular target: T2, HA-NDR N-terminal point mutant, arginine 78 to alanine (human, UniProt Q15208 1-465); assay: as above
T2 construct: also called arginine 78 mutant
T2 sequence (Q15208 other isoform, or with tags, fused parts or gaps mutant limits assumed): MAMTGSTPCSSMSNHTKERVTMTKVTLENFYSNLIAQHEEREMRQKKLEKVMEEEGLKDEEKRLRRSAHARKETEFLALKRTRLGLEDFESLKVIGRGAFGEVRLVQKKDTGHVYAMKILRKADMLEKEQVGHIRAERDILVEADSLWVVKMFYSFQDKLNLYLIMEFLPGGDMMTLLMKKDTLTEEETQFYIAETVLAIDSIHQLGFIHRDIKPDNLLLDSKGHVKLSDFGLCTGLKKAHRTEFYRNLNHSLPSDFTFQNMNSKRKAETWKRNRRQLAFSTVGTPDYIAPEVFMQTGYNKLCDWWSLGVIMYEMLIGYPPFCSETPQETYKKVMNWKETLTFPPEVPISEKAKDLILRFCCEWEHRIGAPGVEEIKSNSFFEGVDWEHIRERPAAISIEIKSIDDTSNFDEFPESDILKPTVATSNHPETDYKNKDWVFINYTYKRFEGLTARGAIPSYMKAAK

[3] = molecular target: T3, HA-NDR N-terminal point mutant, tyrosine 31 to alanine (human, UniProt Q15208 1-465); assay: as above
T3 construct: also called tyrosine 31 mutant
T3 sequence (Q15208 other isoform, or with tags, fused parts or gaps mutant limits assumed): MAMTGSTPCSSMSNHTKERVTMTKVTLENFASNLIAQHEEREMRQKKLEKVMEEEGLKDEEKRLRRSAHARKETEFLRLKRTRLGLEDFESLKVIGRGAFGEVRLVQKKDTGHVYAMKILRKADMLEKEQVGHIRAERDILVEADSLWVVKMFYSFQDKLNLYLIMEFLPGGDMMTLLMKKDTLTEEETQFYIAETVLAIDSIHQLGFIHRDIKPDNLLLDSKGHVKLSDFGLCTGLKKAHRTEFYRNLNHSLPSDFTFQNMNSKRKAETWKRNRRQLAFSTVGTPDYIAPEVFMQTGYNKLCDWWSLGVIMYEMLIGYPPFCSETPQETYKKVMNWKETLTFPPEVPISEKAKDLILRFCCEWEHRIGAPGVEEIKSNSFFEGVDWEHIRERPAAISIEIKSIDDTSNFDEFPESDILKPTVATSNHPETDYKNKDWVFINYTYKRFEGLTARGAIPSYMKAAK

[4] = molecular target: T4, HA-NDR1 T74A (human, UniProt Q15208 1-465); assay: co-immunoprecipitation of myc-hMOB1 with HA-NDR, OA-treated COS-1 cells
T4 construct: pCMV5_HA-NDR1 mutant expressed in COS-1 cells; also called T74A mutant
T4 sequence (Q15208 whole entry T74A): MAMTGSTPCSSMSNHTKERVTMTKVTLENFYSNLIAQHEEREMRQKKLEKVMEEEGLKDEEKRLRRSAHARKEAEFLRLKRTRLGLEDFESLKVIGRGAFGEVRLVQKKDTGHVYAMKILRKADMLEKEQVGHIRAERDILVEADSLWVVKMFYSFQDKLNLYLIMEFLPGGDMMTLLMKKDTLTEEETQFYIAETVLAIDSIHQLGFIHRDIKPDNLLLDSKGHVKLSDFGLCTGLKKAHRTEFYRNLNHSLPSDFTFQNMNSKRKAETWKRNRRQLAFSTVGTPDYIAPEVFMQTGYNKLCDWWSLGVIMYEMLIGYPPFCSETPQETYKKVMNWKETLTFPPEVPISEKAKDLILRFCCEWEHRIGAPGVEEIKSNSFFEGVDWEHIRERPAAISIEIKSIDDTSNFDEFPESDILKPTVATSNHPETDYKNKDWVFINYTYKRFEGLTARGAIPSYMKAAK

[5] = molecular target: T5, HA-tagged NDR1 wild type (human, UniProt Q15208 1-465); assay: co-immunoprecipitation, summary of Example 8
T5 construct: also called HA-NDR1; HA-NDR
T5 sequence (Q15208 whole entry): as the sequence (Q15208 whole entry T74A) above, with A74T counted along it

T1 sequence (Q15208 other isoform, or with tags, fused parts or gaps mutant limits assumed): as the sequence (Q15208 whole entry T74A) above, with R41A, A74T counted along it

B1: myc-tagged hMOB1 (other, not shown: small tags and cut ends)
chain: MSFLFSSRSSKTFKPKKNIPEGSHQYELLKHAEATLGSGNLRQAVMLPEGEDLNEWIAVNTVDFFNQINMLYGTITEFCTEASCPVMSAGPRYEYHWADGTNIKKPIKCSAPKYIDYLMTWVQDQLDDETLFPSKIGVPFPKNFMSVAKTILKRLFRVYAHIYHQHFDSVMQLQEEAHLNTSFKHFIFFVQEFNLIDRRELAPLQELIEKLGSKDR
modifications: okadaic acid induced modification of MOB1 (not identified) in cells treated with okadaic acid
notes: also called myc-hMOB1; myc-mob1
B1: no binding [1]; no binding [2]; no binding [3]. B1: no binding [4]; binds [5].
